Results: patent US20250352661A1 (MYTHIC THERAPEUTICS, published 2025)

T1: LRRC15 on LRRC15 positive cell lines SAOS2 and G292 (UniProt Q8TF66 22-581, limits assumed)
T1 construct: whole, on cells
T1 sequence (looked up): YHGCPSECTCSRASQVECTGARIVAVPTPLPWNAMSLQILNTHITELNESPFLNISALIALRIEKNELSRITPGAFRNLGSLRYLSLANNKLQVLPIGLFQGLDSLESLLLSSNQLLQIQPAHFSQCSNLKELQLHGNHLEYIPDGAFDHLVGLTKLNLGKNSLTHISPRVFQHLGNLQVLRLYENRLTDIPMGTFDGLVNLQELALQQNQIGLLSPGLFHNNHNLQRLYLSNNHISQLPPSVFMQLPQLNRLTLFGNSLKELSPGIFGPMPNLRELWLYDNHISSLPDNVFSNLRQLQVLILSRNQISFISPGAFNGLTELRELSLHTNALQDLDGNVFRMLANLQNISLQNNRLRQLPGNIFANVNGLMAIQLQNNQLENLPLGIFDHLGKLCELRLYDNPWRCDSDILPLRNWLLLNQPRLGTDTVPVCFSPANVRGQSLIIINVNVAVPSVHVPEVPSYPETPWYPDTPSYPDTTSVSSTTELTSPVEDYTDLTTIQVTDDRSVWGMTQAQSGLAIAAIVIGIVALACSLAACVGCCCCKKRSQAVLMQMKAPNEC

T2: LRRC15 on the surface of LRRC15+ cells (SAOS-2, U87MG) (UniProt Q8TF66 22-581, limits assumed)
T2 sequence (looked up): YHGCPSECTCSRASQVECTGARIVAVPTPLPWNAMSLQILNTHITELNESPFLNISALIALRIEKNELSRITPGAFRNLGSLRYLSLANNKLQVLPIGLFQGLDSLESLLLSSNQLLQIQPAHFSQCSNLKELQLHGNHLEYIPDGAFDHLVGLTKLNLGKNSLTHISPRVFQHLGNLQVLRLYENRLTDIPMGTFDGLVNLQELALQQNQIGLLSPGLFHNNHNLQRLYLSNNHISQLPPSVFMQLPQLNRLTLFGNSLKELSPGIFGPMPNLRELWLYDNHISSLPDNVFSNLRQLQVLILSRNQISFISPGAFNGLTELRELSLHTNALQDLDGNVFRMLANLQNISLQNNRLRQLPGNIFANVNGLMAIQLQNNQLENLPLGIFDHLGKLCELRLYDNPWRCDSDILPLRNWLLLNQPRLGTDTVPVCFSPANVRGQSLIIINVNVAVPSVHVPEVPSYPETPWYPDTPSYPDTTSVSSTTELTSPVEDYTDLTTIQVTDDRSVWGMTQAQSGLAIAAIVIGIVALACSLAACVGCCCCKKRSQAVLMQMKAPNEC

T3: Human LRRC15 Protein, His Tag (Acro Biosystems) (human, UniProt Q8TF66 22-538, limits assumed)
T3 sequence (looked up): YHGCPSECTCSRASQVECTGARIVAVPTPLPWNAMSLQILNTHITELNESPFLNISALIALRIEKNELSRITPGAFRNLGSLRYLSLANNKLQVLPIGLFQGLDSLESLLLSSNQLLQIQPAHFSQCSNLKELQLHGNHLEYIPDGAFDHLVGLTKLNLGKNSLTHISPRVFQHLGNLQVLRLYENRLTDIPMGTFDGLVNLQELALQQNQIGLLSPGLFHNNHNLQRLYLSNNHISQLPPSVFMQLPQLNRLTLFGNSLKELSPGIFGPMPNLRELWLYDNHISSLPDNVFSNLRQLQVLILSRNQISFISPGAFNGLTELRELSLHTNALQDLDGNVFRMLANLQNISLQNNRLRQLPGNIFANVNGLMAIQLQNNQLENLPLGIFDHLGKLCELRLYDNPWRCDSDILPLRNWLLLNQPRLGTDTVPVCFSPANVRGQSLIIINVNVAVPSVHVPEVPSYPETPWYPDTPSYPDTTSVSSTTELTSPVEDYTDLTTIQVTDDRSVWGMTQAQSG


What was measured:
[1] = target: T1, LRRC15 on LRRC15 positive cell lines …; assay: cell binding on SAOS2 cells (LRRC15 positive), pH 7.4; parameters: unit not given here
[2] = target: T1, LRRC15 on LRRC15 positive cell lines …; assay: cell binding on G292 cells (LRRC15 positive), pH 7.4; parameters: unit not given here
[3] = target: T2, LRRC15 on the surface of LRRC15+ cells …; assay: cell-based or functional assay
[4] = target: T3, Human LRRC15 Protein, His Tag (Acro …); assay: BLI; dissociation pH 7.4 black, pH 5.4 grey [2/2); D00007 FIG. 1E (2/2]
From the text: For each individual plot, antigen binding proteins were captured on anti-human Fc biosensors and associated with LRRC15 at pH 7.4. Dissociation was at pH 7.4 (black) or pH 5.4 (grey). Major X-axis ticks=100 seconds, with left dashed vertical line=0 seconds. Major Y-axis ticks=0.5 nm and octet plots are shown MYT5712 and MYT6080-MYT6121.
Multiple LRRC15-binding monoclonal antibodies have been described in the literature and can be used as a template for engineering pH-dependent binding. We selected discovery RabMAb clone 15G7 (rabbit VH SEQ ID NO: 378, rabbit VL SEQ ID NO: 451; humanized VH SEQ ID NO: 382, humanized VL SEQ ID NO: 455) as a LRRC15-binding monoclonal antibody for pH-engineering via histidine scanning. […] To generate pH-dependent sequence variants, individual amino acid residues within the heavy chain CDRs were systematically substituted with a histidine (or alanine if H was already present in a given position; e.g., MYT6099), one at a time (rabbit, MYT6080-6121). Desirable mutations were transferred to a humanized framework (humanized, MYT 8387-8411). After allowing for four days of protein expression, cell culture supernatants were collected, quantified by SDS-PAGE analysis, and the pH dependence of the variant was evaluated using biolayer interferometry (BLI) on an Octet RED 96e instrument. Briefly, cell culture supernatants were diluted based on qualitative expression level of the variant determined by visual examination of SDS-PAGE gels, 5 μL of cell culture supernatant was diluted into 195 μL of 1×PBST, pH 7.4 for high expressors, 25 μL of cell culture supernatant was diluted into 175 μL of 1×PBST, pH 7.4 for medium expressors and 100 μL of cell culture supernatant was diluted into 100 μL of 1×PBST, pH 7.4 for low expressors for loading onto the sensor tips.

Binder	Affinity [1]	Affinity [2]	20 nM Efficacy (cytotoxicity of candidates against SAOS-2 cells) [3]	binding result [4]
MYT8483 (antibody, IgG1, V domains shown, Humanized 24D9; also called hu24D9; Parental) VH: EVQLVESGGGLVQPGGSLRLSCTASGFSFSGSYWICWVRQAPGKGLEWVGCINGGSLDITYYASWAKGRFTISRDTSKNTVYLQKTSLRAEDTAVYYCASDTSYTAYGNFYFNLWGQGTLVTVSS VL: EIVMTQSPSPLSASVGDRVIITCQSSQSVLNNNWLAWYQQKPGKAPKLLIYDASSLASGVPSRFSGSGSGAEFTLTISSLQPDDFATYYCQGEFSCGSADCNAFGQGTKLTVL	1.65	2.07		
MYT8500 (antibody, V domains shown, also called hu 24D9 HC Hydrophobicity Variant; hu24D9 HC Dev) VH: EVQLVESGGGLVQPGGSLRLSCTASGFSFSGSYWICWVRQAPGKGLEWVGCINGGSHDITYYASWAKGRFTISRDTSKNTVYLQKTSLRAEDTAVYYCASDTSYTAYGNFYFNLWGQGTLVTVSS VL: EIVMTQSPSPLSASVGDRVIITCQSSQSVLNNNWLAWYQQKPGKAPKLLIYDASSLASGVPSRFSGSGSGAEFTLTISSLQPDDFATYYCQGEFSCGSADCNAFGQGTKLTVL	1.22	2.21		
MYT8391-c-ADC (antibody, human IgG1, kappa, V domains shown, vcMMAE conjugated to the cysteine at position 205 of the light chain) VH: EVQLVESGGGLVQPGGSLRLSCTASGLDFRRTNYICWVRQAPGKGLEWVGCIYIADVVHYYASWAKGRFTFSRDTSKNTVYLQMNSLRAEDTAVYYCARGADGGFHYGMDLWGQGTLVTVSS VL: EIVMTQSPSTLSASVGDRVIITCQASQSIGNYLSWYQQKPGKAPKRLIYSASTLPSGVPSRFSGSGSGAEFTLTISSLQPDDFATYYCQNNYWLAGYGHPFGQGTKLTVLR			63.8	
MYT8391 (antibody, V domains shown, Humanized 15G7 variant (HC descriptor V106H); also called hu 15G7 HC his variant; hu 15G7 HC his scan variant) VH: EVQLVESGGGLVQPGGSLRLSCTASGLDFRRTNYICWVRQAPGKGLEWVGCIYIADVVHYYASWAKGRFTFSRDTSKNTVYLQMNSLRAEDTAVYYCARGADGGFHYGMDLWGQGTLVTVSS VL: EIVMTQSPSTLSASVGDRVIITCQASQSIGNYLSWYQQKPGKAPKRLIYSASTLPSGVPSRFSGSGSGAEFTLTISSLQPDDFATYYCQNNYWLAGYGHPFGQGTKLTVL	0.483	0.336		
MYT8416 (antibody, V domains shown, Humanized 15G7 variant (LC descriptor W109H); also called hu 15G7 LC his variant) VH: EVQLVESGGGLVQPGGSLRLSCTASGLDFRRTNYICWVRQAPGKGLEWVGCIYIADVVHYYASWAKGRFTFSRDTSKNTVYLQMNSLRAEDTAVYYCARGADGGFVYGMDLWGQGTLVTVSS VL: EIVMTQSPSTLSASVGDRVIITCQASQSIGNYLSWYQQKPGKAPKRLIYSASTLPSGVPSRFSGSGSGAEFTLTISSLQPDDFATYYCQNNYHLAGYGHPFGQGTKLTVL	1.15	1.37		
MYT8415 (antibody, V domains shown, Humanized 15G7 variant (LC descriptor Y108H); also called hu 15G7 LC his variant) VH: EVQLVESGGGLVQPGGSLRLSCTASGLDFRRTNYICWVRQAPGKGLEWVGCIYIADVVHYYASWAKGRFTFSRDTSKNTVYLQMNSLRAEDTAVYYCARGADGGFVYGMDLWGQGTLVTVSS VL: EIVMTQSPSTLSASVGDRVIITCQASQSIGNYLSWYQQKPGKAPKRLIYSASTLPSGVPSRFSGSGSGAEFTLTISSLQPDDFATYYCQNNHWLAGYGHPFGQGTKLTVL	0.754	1.11		
MYT8417 (antibody, V domains shown, Humanized 15G7 variant (LC descriptor G112H); also called hu 15G7 LC his variant) VH: EVQLVESGGGLVQPGGSLRLSCTASGLDFRRTNYICWVRQAPGKGLEWVGCIYIADVVHYYASWAKGRFTFSRDTSKNTVYLQMNSLRAEDTAVYYCARGADGGFVYGMDLWGQGTLVTVSS VL: EIVMTQSPSTLSASVGDRVIITCQASQSIGNYLSWYQQKPGKAPKRLIYSASTLPSGVPSRFSGSGSGAEFTLTISSLQPDDFATYYCQNNYWLAHYGHPFGQGTKLTVL	0.554	0.76		
MYT2737-c-ADC (antibody, human IgG1, kappa, V domains shown, vcMMAE conjugated to the cysteine at position 205 of the light chain) VH: EVQLVQSGAEVKKPGASVKVSCKASGYKFSSYWIEWVKQAPGQGLEWIGEILPGSDTTNYNEKFKDRATFTSDTSINTAYMELSRLRSDDTAVYYCARDRGNYRAWFGYWGQGTLVTVSS VL: DIQMTQSPSSLSASVGDRVTITCRASQDISNYLNWYQQKPGGAVKFLIYHTSRLHSGVPSRFSGSGSGTDYTLTISSLQPEDFATYFCQQGEALPWTFGGGTKVEIKR			20.2	
MYT6118 (antibody, V domains shown, chimeric rabbit 15G7 variant (rabbit variable domains, human constant regions); also called 15G7 VH G107H) VH: QEQLEESGGDLVKPGASLTLTCTASGLDFRRTNYICWVRQAPGKGLEWIGCIYIADVVHYYASWAKGRFTFSKTSSTTVTLQMTSLTAADTATYFCARGADGGFVYHMDLWGPGTLVTVSS VL: DVVMTQTPASVSEPVGGTVTIKCQASQSIGNYLSWYQQKPGQRPKRLIYSASTLPSGVPSRFKGAGSGTEFTLTISDLESADAATYYCQNNYWLAGYGHPFGGGTEVVVK				no binding (tested: 50 nM LRRC15)
MYT6120 (antibody, V domains shown, chimeric rabbit 15G7 variant (rabbit variable domains, human constant regions); also called 15G7 VH D109H) VH: QEQLEESGGDLVKPGASLTLTCTASGLDFRRTNYICWVRQAPGKGLEWIGCIYIADVVHYYASWAKGRFTFSKTSSTTVTLQMTSLTAADTATYFCARGADGGFVYGMHLWGPGTLVTVSS VL: DVVMTQTPASVSEPVGGTVTIKCQASQSIGNYLSWYQQKPGQRPKRLIYSASTLPSGVPSRFKGAGSGTEFTLTISDLESADAATYYCQNNYWLAGYGHPFGGGTEVVVK				binds
MYT6121 (antibody, V domains shown, chimeric rabbit 15G7 variant (rabbit variable domains, human constant regions); also called 15G7 VH L110H) VH: QEQLEESGGDLVKPGASLTLTCTASGLDFRRTNYICWVRQAPGKGLEWIGCIYIADVVHYYASWAKGRFTFSKTSSTTVTLQMTSLTAADTATYFCARGADGGFVYGMDHWGPGTLVTVSS VL: DVVMTQTPASVSEPVGGTVTIKCQASQSIGNYLSWYQQKPGQRPKRLIYSASTLPSGVPSRFKGAGSGTEFTLTISDLESADAATYYCQNNYWLAGYGHPFGGGTEVVVK				binds
MYT6119 (antibody, V domains shown, chimeric rabbit 15G7 variant (rabbit variable domains, human constant regions); also called 15G7 VH M108H) VH: QEQLEESGGDLVKPGASLTLTCTASGLDFRRTNYICWVRQAPGKGLEWIGCIYIADVVHYYASWAKGRFTFSKTSSTTVTLQMTSLTAADTATYFCARGADGGFVYGHDLWGPGTLVTVSS VL: DVVMTQTPASVSEPVGGTVTIKCQASQSIGNYLSWYQQKPGQRPKRLIYSASTLPSGVPSRFKGAGSGTEFTLTISDLESADAATYYCQNNYWLAGYGHPFGGGTEVVVK				binds
MYT3315-c-ADC (antibody, human IgG1, kappa, V domains shown, vcMMAE conjugated to the cysteine at position 205 of the light chain) VH: EVQLVESGGGLVQPGGSLRLSCAVSGFSLTSYGVHWVRQATGKGLEWLGVIWAGGSTNYNSALMSRLTISKENAKSSVYLQMNSLRAGDTAMYYCATHMITEDYYGMDYWGQGTTVTVSS VL: DIVMTQSPDSLAVSLGERATINCKSSQSLLNSRTRKNYLAWYQQKPGQSPKLLIYWASTRHSGVPDRFSGSGSGTDFTLTISSLQAEDVAVYYCKQSYNLPTFGGGTKVEIKR			22	
